Earlier results on two substances are cited in patent publication US20230192878A1, “METHODS, THERAPIES AND USES FOR TREATING CANCER” (PFIZER INC., priority 2020, published 2023).

The target of this series is T1, BCMA (Homo sapiens, UniProt Q02223).
T1 sequence (Q02223 1-184): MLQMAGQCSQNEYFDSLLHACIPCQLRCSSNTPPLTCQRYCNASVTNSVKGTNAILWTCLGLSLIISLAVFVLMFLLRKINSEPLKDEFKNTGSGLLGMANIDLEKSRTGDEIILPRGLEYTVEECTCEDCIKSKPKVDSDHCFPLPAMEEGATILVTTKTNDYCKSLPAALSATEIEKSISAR
Particulars: binding to BCMA; read-out: affinity; cited from earlier work.

With “APRIL: a proliferation-inducing ligand, ligand of BCMA”, the Kd was 0.016 µM. For “BAFF: B-cell activation factor, ligand of BCMA”, the Kd was 1 µM.
